Consider 7 molecules from patent publication US9523084B2, “Phosphodeoxyribosyl transferase mutant enzymes and uses thereof” (Centre National De La Recherche Scientifique, priority 2012, dated 2016).

Series [1] in a line: Standard enzyme assay (HPLC): specific activities of PDT variants with natural purines and pyrimidines. It counts as biochemical. Conditions: for Specific activity: donor 3 mM, acceptor 1 mM; for factor of enhancement of deoxyribose 5-phosphate transferase activity between C and A: upon substitution of F13 to arginine (PDTM3 from PDTM1, PDTM4 from PDTM2). Here is the method:
(§1) The standard assay (“first protocol for enzyme assay”) for the different NDTs consisted of 5-15 μg of NDT in 50 mM MES buffer pH 6.0, dNxP (dNMP, or dNDP or dNTP) 3 mM and a base 1 mM in a total volume of 50 μL. Assays were incubated for 60 min at 37° C. The products of the reactions were analyzed each 7 min by Rapid resolution high performance liquid chromatography using a reverse-phase column (ZORBAX Eclipse XDB-C18 2.1*50 mm 1.8 μM) with a flow rate of 0.25 ml/min and a linear gradient of 1-12% CH3CN (2-25% CH3CN or 1-90% CH3CN) in 20 mM triethylammonium acetate, pH 7.5, buffer for 7 min. The low resolution mass spectra of the newly synthesized deoxyribonucleotides were obtained on an Agilent 1200 series LC/MS 6120 quadrupole system using an atmospheric electrospray ionization system.
Unless specifically mentioned, the results presented hereafter have been obtained by using the first protocol for performing the enzyme assay.

The nature of series [2]: In vitro synthesis of deoxynucleotide analogues: specific activities. It counts as biochemical. On the procedure: as §1
The donor concentration was 3 mM and the acceptor 1 mM except for dCTP 2 mM 5-BrU 1 mM and dAMP 2 mM 5-FU 1 mM. Activities are expressed in nanomoles of deoxynucleotides synthesized per min per mg of protein.

B1: PDTM3: NDT mutant R13 S92, SEQ ID NO:5 (protein)
chain: MPKKTIYFGAGWRTDRQNKAYKEAMEALKENPTIDLENSYVPLDNQYKGIRVDEHPEYLHDKVWATATYNNDLNGIKTNDIMLGVYIPDEESVGLGMELGYALSQGKYVLLVIPDEDYGKPINLMSWGVSDNVIKMSQLKDFNFNKPRFDFYEGAVY
modifications: PDTM3 enzyme mutant
On to B1, for which the Specific activity in series [1] (dAMP + C ⇄ dCMP + A) is reported as 34.7 nanomoles of deoxynucleotides synthesized per min per mg of protein; in series [1] (dAMP + Hx ⇄ dIMP + A), 2 nanomoles of deoxynucleotides synthesized per min per mg of protein; in series [1] (dCMP + A ⇄ dAMP + C), 79.7 nanomoles of deoxynucleotides synthesized per min per mg of protein; in series [1] (dCMP + T ⇄ dTMP + C) it was 18.2 nanomoles of deoxynucleotides synthesized per min per mg of protein; in series [1] (dGMP + A ⇄ dAMP + G), 8.5 nanomoles of deoxynucleotides synthesized per min per mg of protein. Further, the “fold lower activity than between C and A” value in series [1] (transfer of deoxyribose 5-phosphate between A and C) is “two-fold”; in series [1] (transfer of deoxyribose 5-phosphate between C and T) it was 4 fold. Further, the “factor of enhancement of deoxyribose 5-phosphate transferase activity between C and A” value in series [1] was determined as 50.

B2: PDTT0: NDT mutant R13 G92 T93 S123, SEQ ID NO:8 (protein)
chain: MPKKTIYFGAGWRTDRQNKAYKEAMEALKENPTIDLENSYVPLDNQYKGIRVDEHPEYLHDKVWATATYNNDLNGIKTNDIMLGVYIPDEEGTGLGMELGYALSQGKYVLLVIPDEDYGKPISLMSWGVSDNVIKMSQLKDFNFNKPRFDFYEGAVY
modifications: PDTT0 enzyme mutant
With B2, the Specific activity in series [1] (dAMP + C ⇄ dCMP + A) is 23.7 nanomoles of deoxynucleotides synthesized per min per mg of protein; in series [1] (dAMP + Hx ⇄ dIMP + A) it was <0.1 nanomoles of deoxynucleotides synthesized per min per mg of protein; in series [1] (dCDP + A ⇄ dADP + C), <0.1 nanomoles of deoxynucleotides synthesized per min per mg of protein; in series [1] (dCMP + A ⇄ dAMP + C) it was 46.3 nanomoles of deoxynucleotides synthesized per min per mg of protein; in series [1] (dCMP + T ⇄ dTMP + C), <0.1 nanomoles of deoxynucleotides synthesized per min per mg of protein; in series [1] (dCTP + A ⇄ dATP + C), <0.1 nanomoles of deoxynucleotides synthesized per min per mg of protein. The Specific activity in series [1] (dGMP + A ⇄ dAMP + G) is given as 49 nanomoles of deoxynucleotides synthesized per min per mg of protein.

B3: PDTT1: NDT mutant R13 G92 T93 S123 K157, SEQ ID NO:9 (protein)
chain: MPKKTIYFGAGWRTDRQNKAYKEAMEALKENPTIDLENSYVPLDNQYKGIRVDEHPEYLHDKVWATATYNNDLNGIKTNDIMLGVYIPDEEGTGLGMELGYALSQGKYVLLVIPDEDYGKPISLMSWGVSDNVIKMSQLKDFNFNKPRFDFYEGAVK
modifications: PDTT1 enzyme mutant
With B3, the Specific activity in series [1] (dADP + C ⇄ dCDP + A) is given as 12 nanomoles of deoxynucleotides synthesized per min per mg of protein; in series [1] (dADP + Hx ⇄ dIDP + A) it was <0.1 nanomoles of deoxynucleotides synthesized per min per mg of protein; in series [1] (dAMP + C ⇄ dCMP + A) it was 5 nanomoles of deoxynucleotides synthesized per min per mg of protein; in series [1] (dAMP + Hx ⇄ dIMP + A), <0.1 nanomoles of deoxynucleotides synthesized per min per mg of protein; in series [1] (dATP + C ⇄ dCTP + A), 1 nanomoles of deoxynucleotides synthesized per min per mg of protein; in series [1] (dATP + Hx ⇄ dITP + A), <0.1 nanomoles of deoxynucleotides synthesized per min per mg of protein. The Specific activity in series [1] (dCDP + A ⇄ dADP + C) is given as 31 nanomoles of deoxynucleotides synthesized per min per mg of protein; in series [1] (dCDP + U ⇄ dUDP + C (U used as acceptor base instead of T)) it was 6 nanomoles of deoxynucleotides synthesized per min per mg of protein; in series [1] (dCMP + A ⇄ dAMP + C), 78 nanomoles of deoxynucleotides synthesized per min per mg of protein; in series [1] (dCMP + T ⇄ dTMP + C), <0.1 nanomoles of deoxynucleotides synthesized per min per mg of protein; in series [1] (dCTP + A ⇄ dATP + C), 10 nanomoles of deoxynucleotides synthesized per min per mg of protein; in series [1] (dCTP + T ⇄ dTTP + C), 1 nanomoles of deoxynucleotides synthesized per min per mg of protein. For the same molecule, the values for the Specific activity in series [1] (dGDP + A ⇄ dADP + G), in series [1] (dGMP + A ⇄ dAMP + G) and in series [1] (dGTP + A ⇄ dATP + G) were 15 nanomoles of deoxynucleotides synthesized per min per mg of protein, 32 nanomoles of deoxynucleotides synthesized per min per mg of protein and 25 nanomoles of deoxynucleotides synthesized per min per mg of protein, respectively.

B4: PDTM1: NDT single mutant D92S, SEQ ID NO:3 (protein)
chain: MPKKTIYFGAGWFTDRQNKAYKEAMEALKENPTIDLENSYVPLDNQYKGIRVDEHPEYLHDKVWATATYNNDLNGIKTNDIMLGVYIPDEESVGLGMELGYALSQGKYVLLVIPDEDYGKPINLMSWGVSDNVIKMSQLKDFNFNKPRFDFYEGAVY
modifications: PDTM1 enzyme mutant
As for B4, the Specific activity in series [1] (dCMP + A ⇄ dAMP + C) is recorded as 1.8 nanomoles of deoxynucleotides synthesized per min per mg of protein.

B5: NDTWT: wild-type nucleoside deoxyribosyltransferase of Lactobacillus leichmannii, SEQ ID NO:1 (F13E91D92V93N123Y157) (protein, listed as Lactobacillus leichmannii)
chain: MPKKTIYFGAGWFTDRQNKAYKEAMEALKENPTIDLENSYVPLDNQYKGIRVDEHPEYLHDKVWATATYNNDLNGIKTNDIMLGVYIPDEEDVGLGMELGYALSQGKYVLLVIPDEDYGKPINLMSWGVSDNVIKMSQLKDFNFNKPRFDFYEGAVY
Take B5: in series [1] (dCMP + A ⇄ dAMP + C), the Specific activity was 0.1 nanomoles of deoxynucleotides synthesized per min per mg of protein.

B6: PDTM4: NDT mutant R13 S92 S123, SEQ ID NO:6 (protein)
chain: MPKKTIYFGAGWRTDRQNKAYKEAMEALKENPTIDLENSYVPLDNQYKGIRVDEHPEYLHDKVWATATYNNDLNGIKTNDIMLGVYIPDEESVGLGMELGYALSQGKYVLLVIPDEDYGKPISLMSWGVSDNVIKMSQLKDFNFNKPRFDFYEGAVY
modifications: PDTM4 enzyme mutant
For B6, the Specific activity in series [1] (dAMP + C ⇄ dCMP + A) is recorded as 77.6 nanomoles of deoxynucleotides synthesized per min per mg of protein; in series [1] (dAMP + Hx ⇄ dIMP + A), <0.1 nanomoles of deoxynucleotides synthesized per min per mg of protein; in series [1] (dCMP + A ⇄ dAMP + C), 170 nanomoles of deoxynucleotides synthesized per min per mg of protein; in series [1] (dCMP + T ⇄ dTMP + C), 52 nanomoles of deoxynucleotides synthesized per min per mg of protein; in series [1] (dGMP + A ⇄ dAMP + G), 57 nanomoles of deoxynucleotides synthesized per min per mg of protein; in series [2] (dAMP + 5-FU → A + 5-F-dUMP, dAMP 2 mM 5-FU 1 mM) it was 43 nanomoles of deoxynucleotides synthesized per min per mg of protein. For the same molecule, the Specific activity in series [2] (dCMP + 2,6-D → C + 2,6-DMP, donor 3 mM, acceptor 1 mM) was 96 nanomoles of deoxynucleotides synthesized per min per mg of protein; in series [2] (dCMP + 2,6-chloropurine → C + 2,6-dichloropurine 2′-deoxyribose 5′-monophosphate, donor 3 mM, acceptor 1 mM), 32 nanomoles of deoxynucleotides synthesized per min per mg of protein; in series [2] (dCMP + 5-BrU → C + 5-Br-dUMP, donor 3 mM, acceptor 1 mM) it was 35 nanomoles of deoxynucleotides synthesized per min per mg of protein; in series [2] (dCMP + 6-chloropurine → C + 6-chloropurine 2′-deoxyribose 5′-monophosphate, donor 3 mM, acceptor 1 mM) it was 24 nanomoles of deoxynucleotides synthesized per min per mg of protein. In addition, in series [1], the “factor of enhancement of deoxyribose 5-phosphate transferase activity between C and A” value is reported as 50. The “activity relative to PDTM3” value in series [1] (whatever the couple of bases tested) was “two times more active than PDTM3”.

B7: PDTM2: NDT double mutant D92S, N123S, SEQ ID NO:4 (protein)
chain: MPKKTIYFGAGWFTDRQNKAYKEAMEALKENPTIDLENSYVPLDNQYKGIRVDEHPEYLHDKVWATATYNNDLNGIKTNDIMLGVYIPDEESVGLGMELGYALSQGKYVLLVIPDEDYGKPISLMSWGVSDNVIKMSQLKDFNFNKPRFDFYEGAVY
modifications: PDTM2 enzyme mutant
For the molecule B7, the Specific activity in series [1] (dCMP + A ⇄ dAMP + C) is given as 1.7 nanomoles of deoxynucleotides synthesized per min per mg of protein.
